Data on 1 substance can be found in article PMC8396234.

This assay concerns the target GHSR1a-RLuc (ghrelin GHSR1a receptor fused to Renilla luciferase) (human) (UniProt Q92847). As to conditions: scale: % decrease of forskolin-induced cAMP levels.
Sequence of UniProt Q92847 (Q92847 whole entry, the tested form may be a part): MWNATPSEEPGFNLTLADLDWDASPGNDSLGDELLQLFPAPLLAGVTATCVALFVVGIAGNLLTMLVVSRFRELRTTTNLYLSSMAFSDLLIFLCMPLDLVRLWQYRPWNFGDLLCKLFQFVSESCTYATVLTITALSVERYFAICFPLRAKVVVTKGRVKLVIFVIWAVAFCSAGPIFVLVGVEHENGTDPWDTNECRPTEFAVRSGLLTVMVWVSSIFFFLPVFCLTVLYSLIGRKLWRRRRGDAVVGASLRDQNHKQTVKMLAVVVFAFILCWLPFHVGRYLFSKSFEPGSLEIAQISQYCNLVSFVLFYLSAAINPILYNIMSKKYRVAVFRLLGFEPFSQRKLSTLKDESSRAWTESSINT

Ghrelin (peptide): the forskolin-induced cAMP levels in HEK-293T cells expressing GHSR1a alone, 200 nM ghrelin worked out at 25.
